Results on 94 variants are retold here after the supplement of paper PMC10567573.

First the molecules themselves.
B1: TRIM14 (parent)
chain: REQADSCREQLDIMNDLSNRVWSI
B2: TEKT4 (parent)
chain: YARYHQAFADRDQSERQRHESQQL
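Note: lentivirally expressed fusions sorted by FACS into six bins by GFP to DsRed ratio, PSI derived from sequencing read proportions per bin multiplied by bin number.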

The variants in one data set derive from B1. The data set is described as follows: protein stability index of a GFP-peptide fusion (GPS, HEK-293T) (PSI 1-6); higher = more stable. The following applies: c terminus: a fixed tail appended.
Take REQADSCREQLDIMNDLSNRVWSN: the protein stability index is 3.95.

With REQADSCREQLDIMNDLSNRVWSW, the protein stability index worked out at 2.31.

In the case of REQADSCREQLDIMNDLSNRVWSE, the protein stability index came out at 3.68.

For the variant REQADSCREQLDIMNDLSNRVWST, the protein stability index is 4.01.

Regarding REQADSCREQLDIMNDLSNRVWSF, the protein stability index was determined as 2.25.

For REQADSCREQLDIMNDLSNRVWSL, the protein stability index stood at 2.46.

Turning to REQADSCREQLDIMNDLSNRVWSP, the protein stability index was determined as 3.64.

For the variant REQADSCREQLDIMNDLSNRVWSH, the protein stability index stood at 3.6.

In the case of REQADSCREQLDIMNDLSNRVWSG, the protein stability index was determined as 3.72.

As to REQADSCREQLDIMNDLSNRVWSM, the protein stability index turned out to be 2.79.

On to REQADSCREQLDIMNDLSNRVWSQ, for which the protein stability index came out at 3.34.

In the case of REQADSCREQLDIMNDLSNRVWSS, the protein stability index amounted to 3.46.

On to REQADSCREQLDIMNDLSNRVWSV, for which the protein stability index amounted to 2.17.

On to REQADSCREQLDIMNDLSNRVWSD, for which the protein stability index was found to be 4.01.

For REQADSCREQLDIMNDLSNRVWSR, the protein stability index came to 3.44.

Consider REQADSCREQLDIMNDLSNRVWSY, for which the protein stability index is 2.53.

Regarding REQADSCREQLDIMNDLSNRVWSK, the protein stability index is 3.55.

The variants in a further data set derive from B2. Described as above. The following applies: c terminus: a fixed tail appended.
For YHRYHQAFADRDQSERQRHESQQL, the protein stability index was found to be 4.12.

On to YYRYHQAFADRDQSERQRHESQQL, for which the protein stability index was found to be 3.58.

For YERYHQAFADRDQSERQRHESQQL, the protein stability index is 4.29.

Regarding YRRYHQAFADRDQSERQRHESQQL, the protein stability index is 4.27.

For YPRYHQAFADRDQSERQRHESQQL, the protein stability index worked out at 2.7.

Turning to YKRYHQAFADRDQSERQRHESQQL, the protein stability index turned out to be 3.82.

With YFRYHQAFADRDQSERQRHESQQL, the protein stability index stood at 2.87.

Regarding YMRYHQAFADRDQSERQRHESQQL, the protein stability index worked out at 2.27.

For the variant YTRYHQAFADRDQSERQRHESQQL, the protein stability index worked out at 1.67.

With YWRYHQAFADRDQSERQRHESQQL, the protein stability index was 2.68.

YIRYHQAFADRDQSERQRHESQQL: the protein stability index is 2.5.

As to YLRYHQAFADRDQSERQRHESQQL, the protein stability index worked out at 2.09.

For the variant YNRYHQAFADRDQSERQRHESQQL, the protein stability index is 2.85.

Consider YVRYHQAFADRDQSERQRHESQQL, for which the protein stability index was determined as 1.87.

For YDRYHQAFADRDQSERQRHESQQL, the protein stability index worked out at 4.3.

As for YCRYHQAFADRDQSERQRHESQQL, the protein stability index came out at 1.48.

Turning to YSRYHQAFADRDQSERQRHESQQL, the protein stability index was determined as 1.92.

YQRYHQAFADRDQSERQRHESQQL: the protein stability index amounted to 1.84.

As to YARYHQAFLDRDQSERQRHESQQL, the protein stability index was found to be 3.49.

With YARYHQAFSDRDQSERQRHESQQL, the protein stability index was 2.48.

Regarding YARYHQAFNDRDQSERQRHESQQL, the protein stability index is 3.09.

As for YARYHQAFFDRDQSERQRHESQQL, the protein stability index is 2.58.

Regarding YARYHQAFKDRDQSERQRHESQQL, the protein stability index amounted to 3.3.

YARYHQAFRDRDQSERQRHESQQL: the protein stability index amounted to 2.35.

With YARYHQAFPDRDQSERQRHESQQL, the protein stability index turned out to be 3.9.

In the case of YARYHQAFQDRDQSERQRHESQQL, the protein stability index turned out to be 2.98.

YARYHQAFCDRDQSERQRHESQQL: the protein stability index was determined as 1.67.

Regarding YARYHQAFYDRDQSERQRHESQQL, the protein stability index worked out at 2.89.

As to YARYHQAFMDRDQSERQRHESQQL, the protein stability index turned out to be 2.21.

As to YARYHQAFTDRDQSERQRHESQQL, the protein stability index came to 3.36.

With YARYHQAFIDRDQSERQRHESQQL, the protein stability index worked out at 3.12.

For YARYHQAFHDRDQSERQRHESQQL, the protein stability index came to 3.21.

For the variant YARYHQAFDDRDQSERQRHESQQL, the protein stability index was 3.86.

Consider YARYHQAFGDRDQSERQRHESQQL, for which the protein stability index was 2.6.

As to YARYHQAFVDRDQSERQRHESQQL, the protein stability index turned out to be 3.35.

Turning to YARYHQAFEDRDQSERQRHESQQL, the protein stability index came out at 3.57.

In the case of YARYHEAFADRDQSERQRHESQQL, the protein stability index is 2.62.

Turning to YARYHDAFADRDQSERQRHESQQL, the protein stability index was 2.73.

Regarding YARYHKAFADRDQSERQRHESQQL, the protein stability index is 2.31.

YARYHNAFADRDQSERQRHESQQL: the protein stability index stood at 2.28.

For YARYHYAFADRDQSERQRHESQQL, the protein stability index was 2.54.

Turning to YARYHRAFADRDQSERQRHESQQL, the protein stability index is 2.26.

Take YARYHVAFADRDQSERQRHESQQL: the protein stability index came out at 2.69.

Take YARYHSAFADRDQSERQRHESQQL: the protein stability index stood at 1.77.

Take YARYHMAFADRDQSERQRHESQQL: the protein stability index is 2.32.

For YARYHWAFADRDQSERQRHESQQL, the protein stability index amounted to 2.08.

Regarding YARYHAAFADRDQSERQRHESQQL, the protein stability index is 1.62.

Turning to YARYHTAFADRDQSERQRHESQQL, the protein stability index was determined as 2.34.

In the case of YARYHPAFADRDQSERQRHESQQL, the protein stability index was 2.69.

Regarding YARYHFAFADRDQSERQRHESQQL, the protein stability index came out at 3.06.

Take YARYHHAFADRDQSERQRHESQQL: the protein stability index was 2.25.

Turning to YARYHCAFADRDQSERQRHESQQL, the protein stability index turned out to be 2.02.

For YARYHIAFADRDQSERQRHESQQL, the protein stability index is 2.24.

On to YARYHGAFADRDQSERQRHESQQL, for which the protein stability index was found to be 2.64.

YARYHLAFADRDQSERQRHESQQL: the protein stability index was 2.02.

In the case of YAGYHQAFADRDQSERQRHESQQL, the protein stability index was 1.98.

As to YAWYHQAFADRDQSERQRHESQQL, the protein stability index came to 2.2.

Consider YADYHQAFADRDQSERQRHESQQL, for which the protein stability index turned out to be 3.

Regarding YAFYHQAFADRDQSERQRHESQQL, the protein stability index worked out at 2.38.

As for YAQYHQAFADRDQSERQRHESQQL, the protein stability index was determined as 2.57.

In the case of YAVYHQAFADRDQSERQRHESQQL, the protein stability index turned out to be 3.11.

As for YASYHQAFADRDQSERQRHESQQL, the protein stability index was 2.36.

Turning to YALYHQAFADRDQSERQRHESQQL, the protein stability index is 2.97.

With YACYHQAFADRDQSERQRHESQQL, the protein stability index turned out to be 2.84.

Regarding YATYHQAFADRDQSERQRHESQQL, the protein stability index worked out at 2.79.

As to YAKYHQAFADRDQSERQRHESQQL, the protein stability index stood at 2.3.

As for YAMYHQAFADRDQSERQRHESQQL, the protein stability index is 2.6.

In the case of YAYYHQAFADRDQSERQRHESQQL, the protein stability index was 2.88.

For YANYHQAFADRDQSERQRHESQQL, the protein stability index amounted to 2.79.

Take YAIYHQAFADRDQSERQRHESQQL: the protein stability index came out at 3.4.

YAEYHQAFADRDQSERQRHESQQL: the protein stability index worked out at 2.06.

Consider YAPYHQAFADRDQSERQRHESQQL, for which the protein stability index is 1.6.

With YAAYHQAFADRDQSERQRHESQQL, the protein stability index was 2.85.

Turning to YAHYHQAFADRDQSERQRHESQQL, the protein stability index was determined as 2.64.

Regarding NARYHQAFADRDQSERQRHESQQL, the protein stability index turned out to be 4.9.

On to IARYHQAFADRDQSERQRHESQQL, for which the protein stability index came to 4.55.

As for RARYHQAFADRDQSERQRHESQQL, the protein stability index came to 4.08.
